In the supplement of paper PMC9233669:
This sample holds only a part of the variants without activity.

What was measured:
biotinyl-Phe-oxazolone = assay: self-aminoacylation, catalytic enhancement (BFO) (fold over background); higher = more active; k-Seq, kA / k0A0; sequences stand for … in GGGAAUGGAUCCACAUCUACGAAUUC…UUCACUGCAGACUUGACGAAGCUG
Method in brief: (§1)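 Mutagenized RNA pools with a 21-nt variable region (0.43 μM) were reacted with each biotinyl-aminoacyl-oxazolone at 2–1250 μM for 90 minutes at room temperature, in 50 μL HEPES/NaCl/KCl/MgCl2/CaCl2 buffer containing 5% acetonitrile at pH 6.9–7.0. RNA captured on streptavidin was quantified by triplicate qPCR and by Illumina sequencing. The fraction reacted for each sequence was fit to a pseudo-first-order model with bootstrapping, and catalytic enhancement is the median kA divided by the uncatalyzed rate, taken as the low-activity peak of a bimodal Gaussian fit.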

biotinyl-Leu-oxazolone = assay: self-aminoacylation, catalytic enhancement (BLO) (fold over background); higher = more active; k-Seq, kA / k0A0; sequences stand for … in GGGAAUGGAUCCACAUCUACGAAUUC…UUCACUGCAGACUUGACGAAGCUG
Method in brief: as §1

biotinyl-Trp-oxazolone = assay: self-aminoacylation, catalytic enhancement (BWO) (fold over background); higher = more active; k-Seq, kA / k0A0; sequences stand for … in GGGAAUGGAUCCACAUCUACGAAUUC…UUCACUGCAGACUUGACGAAGCUG
Method in brief: as §1

biotinyl-Ile-oxazolone = assay: self-aminoacylation, catalytic enhancement (BIO) (fold over background); higher = more active; k-Seq, kA / k0A0; sequences stand for … in GGGAAUGGAUCCACAUCUACGAAUUC…UUCACUGCAGACUUGACGAAGCUG
Method in brief: as §1

biotinyl-Met-oxazolone = assay: self-aminoacylation, catalytic enhancement (BMO) (fold over background); higher = more active; k-Seq, kA / k0A0; sequences stand for … in GGGAAUGGAUCCACAUCUACGAAUUC…UUCACUGCAGACUUGACGAAGCUG
Method in brief: as §1

biotinyl-Val-oxazolone = assay: self-aminoacylation, catalytic enhancement (BVO) (fold over background); higher = more active; k-Seq, kA / k0A0; sequences stand for … in GGGAAUGGAUCCACAUCUACGAAUUC…UUCACUGCAGACUUGACGAAGCUG
Method in brief: as §1

| Sequence | self-aminoacylation (biotinyl-Phe-oxazolone) | self-aminoacylation (biotinyl-Leu-oxazolone) | self-aminoacylation (biotinyl-Trp-oxazolone) | self-aminoacylation (biotinyl-Ile-oxazolone) | self-aminoacylation (biotinyl-Met-oxazolone) | self-aminoacylation (biotinyl-Val-oxazolone) |
| --- | --- | --- | --- | --- | --- | --- |
| GCACACUUCAAGCACUCGGUC [Fam1B.1 aminoacylation ribozyme variant] | 4.05 | 1.94 | 3.42 | 2.02 | 2.44 | 2.25 |
| GCACACUUCAAUCAAUCGGUC [Fam1B.1 aminoacylation ribozyme variant] | 34.4 | 1.98 | 26.4 | 1.73 | 1.58 | 1.69 |
| GCACACUUCACGCAAUCGGUC [Fam1B.1 aminoacylation ribozyme variant] | 10.1 | 1.93 | 3.02 | 2.5 | 2 | 2.22 |
| GCACACUUCAGGCAAUCGGUC [Fam1B.1 aminoacylation ribozyme variant] | 3.06 | 1.67 | 2.39 | 2.21 | 2.04 | 2.42 |
| GCACCCUUCAAGCAAUCGGUC [Fam1B.1 aminoacylation ribozyme variant] | 4.04 | 1.45 | 4.63 | 1.32 | 1.22 | 1.47 |
| GCGCACUUCAAGCAAUCGGUC [Fam1B.1 aminoacylation ribozyme variant] | 41.1 | 2.65 | 29.6 | 2.12 | 2.04 | 2.2 |
| GCGUUUGCUAAUAGUCGCAAG [Fam3.1 aminoacylation ribozyme variant] | 4.9 | 2.65 | 4.24 | 2.09 | 2.34 | 2.05 |
| GGACACUUCAAGCAAUCGGUC [Fam1B.1 aminoacylation ribozyme variant] | 26.7 | 2.4 | 22.5 | 2.38 | 2.13 | 2.29 |
| GUACACCUAGGUCAUCGGGUG [Fam2.2 aminoacylation ribozyme variant] | 18.5 | 2.69 | 4.08 | 2.54 | 2.32 | 2.53 |
| GUACUUCAAACAAUCGGUGUG [Fam1A.1 aminoacylation ribozyme variant] | 10.4 | 3.35 | 10.2 | 2.12 | 2.77 | 1.97 |
| GUACUUCAAACACUCGGUCUG [Fam1A.1 aminoacylation ribozyme variant] | 5.9 | 1.64 | 1.91 | 1.5 | 1.31 | 1.3 |
| GUACUUCAAACCAUCGGUCUG [Fam1A.1 aminoacylation ribozyme variant] | 2.13 | 0.918 | 1.31 | 1.22 | 1.13 | 1.18 |
| GUAUUUCAAACAAUCGGUCUG [Fam1A.1 aminoacylation ribozyme variant] | 2.64 | 1.02 | 2.34 | 1.1 | 1.09 | 1.04 |
| GUCACCCUGGUCAUCGAGUGA [Fam2.1 aminoacylation ribozyme variant] | 45.7 | 7.9 | 10.6 | 5.2 | 7.39 | 5.25 |
| GUCCUUCAAACAAUCGGUCUG [Fam1A.1 aminoacylation ribozyme variant] | 11.9 | 1.49 | 11 | 1.31 | 1.35 | 1.52 |
| GUUACACUGGUCAUCGAGUGA [Fam2.1 aminoacylation ribozyme variant] | 28.9 | 6.76 | 8.81 | 4.91 | 6.79 | 4.18 |
| GUUACCCCGGUCAUCGAGUGA [Fam2.1 aminoacylation ribozyme variant] | 45.8 | 7.66 | 8.27 | 3.82 | 6.95 | 3.38 |
| GUUACCCUAGUCAUCGAGUGA [Fam2.1 aminoacylation ribozyme variant] | 28.1 | 6.93 | 7.77 | 3.81 | 6.66 | 3.33 |
| GUUACCCUCGUCAUCGAGUGA [Fam2.1 aminoacylation ribozyme variant] | 11 | 3.7 | 4.33 | 2.45 | 4.14 | 2.31 |
| GUUACCCUGGGCAUCGAGUGA [Fam2.1 aminoacylation ribozyme variant] | 68.6 | 8.7 | 10.1 | 4.53 | 8.99 | 4.16 |
| GUUACCCUGGUCAUCGAGCGA [Fam2.1 aminoacylation ribozyme variant] | 5.54 | 4.14 | 4.27 | 2.84 | 4.51 | 3.46 |
| GUUACCCUGGUCAUCGAGUGG [Fam2.1 aminoacylation ribozyme variant] | 402 | 58.4 | 50 | 15 | 57.2 | 17.4 |
| GUUACCCUGGUCAUCUAGUGA [Fam2.1 aminoacylation ribozyme variant] | 78.6 | 11.7 | 13.4 | 5.9 | 12 | 6.05 |
| GUUACCCUGGUCAUUGAGUGA [Fam2.1 aminoacylation ribozyme variant] | 71.3 | 11 | 13 | 4.72 | 10.2 | 5.29 |
| GUUAGCCUGGUCAUCGAGUGA [Fam2.1 aminoacylation ribozyme variant] | 51.9 | 7.66 | 8.56 | 5.11 | 6.67 | 5.04 |
